Sequences and labels used below:
T1: Kj12A N-terminal docking domain (Xenorhabdus stockiae KJ12.1)
T1 construct: also called Kj12A-NDD; source: E. coli BL21-Gold(DE3), purified (HisTrap, Ulp1 cleavage, anion exchange, SEC)
T1 chain: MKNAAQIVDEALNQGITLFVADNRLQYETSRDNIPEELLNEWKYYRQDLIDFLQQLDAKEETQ

T2: Kj12B N-terminal docking domain (Xenorhabdus stockiae KJ12.1)
T2 construct: also called Kj12B-NDD; source: E. coli BL21-Gold(DE3), purified (HisTrap, Ulp1 cleavage, anion exchange, SEC)
T2 chain: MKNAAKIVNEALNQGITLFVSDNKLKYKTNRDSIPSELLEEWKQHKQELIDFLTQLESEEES

B1: Kj12B C-terminal docking domain peptide (peptide)
peptide: LLKEKRKHFQAEQNSSQEYLRGEI
notes: also called Kj12B-CDD; source: synthetic peptide, bought: JPT Peptides Technologies GmbH
B2: Kj12B-CDDshort peptide (peptide)
peptide: QEYLRGEI
notes: source: synthetic peptide (Fmoc solid-phase synthesis, preparative HPLC)
B3: Kj12B-CDDshort L1564A peptide (peptide)
peptide: QEYARGEI
notes: as for B2
B4: Kj12C N-terminal docking domain (domain or fragment)
chain: MIDAAQIVDEALEQGITLFVVNNRLQYETSRDSIPTELLNKWKQHKQELIDFLNQLDSEEQTK
notes: Kj12C of Xenorhabdus stockiae KJ12.1, N-terminal docking domain, 63 residues; 15N-labelled for the NMR titrations; also called Kj12C-NDD; source: E. coli BL21-Gold(DE3), purified (HisTrap, Ulp1 cleavage, anion exchange, SEC); not shown: His6-SUMO, N-terminal, cleaved
B5: Kj12B-CDDshort G1566A peptide (peptide)
peptide: QEYLRAEI
notes: as for B2

Common to all, as to experiment: ITC; 50 µM NDD (or Kj12C construct) in the cell titrated with 1 mM CDD peptide; 20 °C; 50 mM sodium phosphate pH 6.5, 100 mM NaCl; one site binding model; three independent titrations
Holding throughout (settings): both partners purified

The target of test [1] is T1, Kj12A N-terminal docking domain.
Test [2] deals with B4.
Test [3] concerns the target T2, Kj12B N-terminal docking domain.
For test [4], the target named is B4.
The target in test [5] is T3, Kj12B-CDDshort R1565E peptide (Xenorhabdus stockiae KJ12.1, R1565E (stands in the printed letters)).
T3 construct: source: synthetic peptide (Fmoc solid-phase synthesis, preparative HPLC)

The results in this text go back to publication PMC6195595, “Structure-based redesign of docking domain interactions modulates the product spectrum of a rhabdopeptide-synthesizing NRPS” (Nature Communications, 2018).

A word on the stoichiometry N: it is a count of units in the complex or per binding partner. The term Kd denotes the concentration at which binding is half-saturated. A lower Kd goes with higher affinity.

As for B1, the “stoichiometry N” value in test [1] came out at 0.81 ± 0.01 sites; in test [2], 0.9 ± 0.12 sites; in test [3], 1 sites.

In the case of B2, the “stoichiometry N” value in test [2] amounted to 1.05 ± 0.11 sites.

For the molecule B3, the Kd in test [4] is greater than 100 µM.

In test [5], B4 showed a Kd greater than 100 µM.

In test [4], B5 came in with a dissociation constant (Kd) greater than 100 µM.
